Laboratory results: patent US20180355012A1

What was measured:
[1] = biological target: HLA-B4405: … pMHC complex
[2] = biological target: HLA-A2/… pMHC complex (NY-ESO-1 tumor specific antigen); assay: BLI (forteBIO Oke), biotinylated pMHC on SA sensor, soluble TCR in solution, 1:1 fit
[3] = biological target: HLA-A1: … pMHC complex (MageA3 tumor specific antigen); assay: as above

Substance | Kd [3] | further results
LC13 TCR with an artificial interchain disulfide bond between position 10 of TRAC*01 exon 1 and posi | – | Kd [1]: 10 µM
1G4 TCR with an artificial interchain disulfide bond between position 53 of TRAC*01 exon 1 and position 54 of TRBC1*01 or TRBC2*01 exon 1 | – | Kd [2]: 6.96 µM

Continued, in another order:

Kd [3] | Substance | further results
1.42 µM | MGA3 TCR with an artificial interchain disulfide bond between position 53 of TRAC*01 exon 1 and position 54 of TRBC1*01 or TRBC2*01 exon 1 | –
3.45 µM | MGA3 TCR with an artificial interchain disulfide bond between position 10 of TRAC*01 exon 1 and position 20 of TRBC1*01 or TRBC2*01 exon 1 | –
2.04 µM | MGA3 TCR with an artificial interchain disulfide bond between position 89 of TRAC*01 exon 1 and position 19 of TRBC1*01 or TRBC2*01 exon 1 | –
